The values that follow come from article PMC2788865 (The Journal of Biological Chemistry, 2009).

The test deals with Lys^75-FL-calmodulin (FL-CaM) (human, UniProt P0DP23 1-149, 5-(4,6-dichlorotriazinyl)aminofluorescein (FL) on Lys75). The test can be described thus: fluorescence polarisation. (In fluorescence polarisation assays a small probe gives low polarisation when free and higher when bound to something large.)

B1: Ca^2+/calmodulin-dependent protein kinase IV (CaMKIV) (enzyme)
chain: MLKVTVPSCPSSPCSSVTSSTENLVPDYWIDGSKRDPLSDFFEVESELGRGATSIVYRCKQKGTQKPYALKVLKKTVDKKIVRTEIGVLLRLSHPNIIKLKEIFETPTEISLVLELVTGGELFDRIVEKGYYSERDAADAVKQILEAVAYLHENGIVHRDLKPENLLYATPAPDAPLKIADFGLSKIVEHQVLMKTVCGTPGYCAPEILRGCAYGPEVDMWSVGIITYILLCGFEPFYDERGDQFMFRRILNCEYYFISPWWDEVSLNAKDLVKKLIVLDPKKRLTTFQALQHPWVTGKAANFVHMDTAQKKLQEFNARRKLKAAVKAVVASSRLGSASSSHTNIQESNKASSEAQPAQDGKDKTDPLENKMQAGDHEAAKAAADETMKLQSEEVEEEEGVKEEEEEEEEEEETSRMVPQEPEDRLETDDQEMKRNSEETLKSVEEEMDPKAEEEAAAVGLGVPPQQDAILPEY
Turning to B1, the binding result is “binds”.
